{
  "source": "paper PMC3826434",
  "about": "(Biochemistry, 2013)",
  "proteins": {"B1": {"name": "CmlA, β-hydroxylase of the chloramphenicol biosynthetic pathway (wild type) (enzyme)", "chain": "MRYSLRQDIAVEPVIAGWYGWSYLLPPQTLARFVHNRFNRIVESYLDDPQVHAAAVRQRRMHGGPWIHAHEHRDAIEAWYRETAPRRERLDELFEAVRRLEEDILPRHHGECLDPVYQELPAALAGRVEVFYGRDNRTADYRFVEPLMYASEYYDESWQQVRFRPVTEDAREFALTTPMLEYGPEQLLVDVPLNSPLLDAVFRGGLTGTELDDLAARFGLDGERAARFASYFEPTPAASEAPAPASSSEEDVLEYVGHACVFARHRGTTFLVDPVLSYSGYPGGAENRFTFADLPERIDHLLITHNHQDHMLFETLLRIRHRVGRVLVPKSTNASLVDPGLGGILRRLGFTDVVEVDDLETLSCGSAEVVALPFLGEHGDLRIRSKTGWLIRFGERSVLFAADSTNISPTMYTKVAEVIGPVDTVFIGMESIGAAASWIYGPLYGEPLDRRTDQSRRLNGSNFPQAREIVDALEPDEVYVYAMGLEPWMGVVMAVDYDESHPAIVDSDLLVRHVQDKGGTAERLHLRRTLRL"}},
  "target": "the molecule itself",
  "test": "native gel or EMSA",
  "data": [
    {"protein": "B1", "values": [
      {"measurement": "stoichiometry N", "value": 2}
    ]}
  ]
}
